The results in this text go back to patent publication US20250277039A1 (PURDUE RESEARCH FOUNDATION, published 2025).

The target in test [1] is T1, His-tagged mouse PD-L1 protein (mouse, UniProt Q9EP73 19-238, limits assumed).
T1 construct: also called mPD-L1-His; mPD-L1; not shown: His tag
Put plainly: blocking plate assay: mPD-L1-His on Ni-NTA plate, cPD-1-hFc or mPD-1-hFc, HRP anti-human IgG Fc secondary; 12C concentration not given. As to the method:
(§1) Histidine (His)-tagged canine or mPD-L1 protein was immobilized on the nickel-nitriloacetic acid (Ni-NTA) 96-well plate and horseradish peroxidase (HRP)-conjugated anti-human IgG Fc-specific secondary with mPD-1-hFc or cPD-1-hFc protein was added. OD450 was measured to quantify the amount of bound PD-1 protein.

Test [2] has as its target T1, His-tagged mouse PD-L1 protein. Put plainly: plate assay: His-tagged PD-L1 on Ni-NTA 96-well plate, antibody, HRP anti-canine IgG secondary, OD450. Here is the method: 12C and 3C. with human PD-L1 (hPD-L1), mPD-L1, and cPD-L1 proteins. His-tagged human PD-L1, mPD-L1, or cPD-L1 protein was immobilized on the Ni-NTA 96-well plate, and anti-cPD-L1 Abs. 12C or 3C. with HRP-conjugated anti-canine IgG-specific secondary was added. OD450 was measured to quantify the amount of bound PD-L1 antibodies (Ab=antibody).

For test [3] the target is unchanged. Kind of test: plate assay: His-tagged PD-L1 on Ni-NTA 96-well plate, PD-1-hFc, HRP anti-human IgG Fc secondary, OD450 given as fold ratio. As to the method:
as §1

In test [4] the target is T2, cPD-L1 on MB49^cPD-L1 cells.
T2 construct: also called canine PD-L1 (Flag-cPD-L1) on mouse PD-L1 knockout MB49 cells
T2 chain: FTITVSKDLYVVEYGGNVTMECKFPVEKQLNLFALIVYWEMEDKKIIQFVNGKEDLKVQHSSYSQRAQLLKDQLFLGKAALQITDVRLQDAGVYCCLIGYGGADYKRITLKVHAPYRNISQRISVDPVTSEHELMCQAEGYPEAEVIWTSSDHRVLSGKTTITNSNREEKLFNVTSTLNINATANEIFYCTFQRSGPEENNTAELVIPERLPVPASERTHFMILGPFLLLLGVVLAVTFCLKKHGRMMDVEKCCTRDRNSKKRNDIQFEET
Put plainly: flow cytometry of MB49^cPD-L1 cells. As to the method: (§2) For flow cytometry analysis, MB49 or BT549 cells were washed twice with ice-cold cell staining buffer (Biolegend, San Diego, CA) and stained with cIgG control, or cPD-L1 12C10E4 cIgG or cPD-L1 A12C10E4 cIgG for 1 hour at 4° C. After three washes with staining buffer, cell samples were stained with Alexa Fluor 488-conjugated anti-canine IgG specific secondary antibody for 30 minutes at 4° C. Cell samples were loaded on BD LSRFortessa (BD, Franklin Lakes, NJ) for analysis. Data analysis was performed on FlowJo v9 software (BD). Every hour, green fluorescent signal was measured and quantified by IncuCyte S3 (Sartorius. Goettingen, Germany). The Image analysis was performed according to the manufacturer's protocol.
Background: Flow cytometry measures light scatter and fluorescence of single cells or particles in a stream.

The target in a further test is T3, mPD-L1 on MB49 cells (Mus musculus, UniProt Q9EP73).
T3 construct: endogenous, membrane-located, on MB49 parental mouse bladder cancer cells; also called endogenous mouse PD-L1 on MB49 parental cells
Kind of test: flow cytometry of MB49 parental cells, which stain for mPD-L1 in the left panel. As to the method:
as §2

Test [5] has as its target T4, canine PD-L1 (Flag-cPD-L1) expressed on BT549 cells (canine, UniProt E2RKZ5 19-289).
T4 construct: Flag-tagged (pGIPZ-shPD-L1/Flag-cPD-L1); Endogenous human PD-L1 was knocked down in the BT549 cells; also called membrane-localized cPD-L1 protein; BT549^cPD-L1 cells
T4 sequence: T2 chain
Kind of test: blockade of cPD-1-hFc binding to cPD-L1, bound cPD-1 quantified by green fluorescence on IncuCyte S3 (FIG. 5E). Here is the method: (§3) To measure PD-1 protein on the cells. […] cells were seeded per well in 96-well plates. The plates were then incubated with cIgG control (Rockland Immunochemicals. Pottstown, PA). 12C10E4 antibody or cPD-L1 A12C10E4 antibody, cPD-1-hFc protein (human Fc protein conjugated: Sino Biological US. Wayne. PA), and/or anti-human Alexa Fluor 488 dye conjugate (ThermoFisher Scientific. Waltham. MA). Every 3 hours green fluorescent signal was measured and quantified by IncuCyte S3 (Sartorius. Goettingen. Germany) (FIG. 5B). The image analysis was performed according to the manufacturer's protocol.

Test [6] addresses T4, canine PD-L1 (Flag-cPD-L1) expressed on …. Put plainly: cPD-1/cPD-L1 blockade assay on BT549^cPD-L1 cells; blocked ligand cPD-1-hFc; green fluorescence by IncuCyte S3. Here is the method: as §3
Test [7] has as its target T5, His-tagged canine PD-L1 protein (6X His tagged extracellular domain of cPD-L1) (canine, UniProt E2RKZ5 19-236).
T5 construct: it is treated here as the same construct; also called cPD-L1-His; canine PD-L1-His
T5 sequence: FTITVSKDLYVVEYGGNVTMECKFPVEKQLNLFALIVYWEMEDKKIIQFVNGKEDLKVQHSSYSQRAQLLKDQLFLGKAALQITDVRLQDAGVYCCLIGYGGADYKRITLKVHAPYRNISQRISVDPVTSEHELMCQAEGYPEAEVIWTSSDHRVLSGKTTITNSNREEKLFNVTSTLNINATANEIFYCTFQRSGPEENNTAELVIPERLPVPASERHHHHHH
Put plainly: cell-free ELISA-based binding assay on His-tagged extracellular domain of cPD-L1, bound antibody as OD450.

Test [8] addresses T5, His-tagged canine PD-L1 protein (6X His …). Put plainly: Octet BLI (RED384): His-tagged cPD-L1 loaded on an NTA biosensor at 200 nM, antibody at 50, 100, 200 nmol/L. Here is the method: The binding affinity (KD) of the chimeric cPD-L1/cPD-L1 antibody (12C10E4) for canine PD-L1 was determined by Octet Biolayer interferometry (BLI) using the Octet RED384 system (Sartorius. Bohemia. NY). Briefly. His-tagged cPD-L1 protein was loaded on the Octet NTA biosensor at a concentration of 200 nM. The association step was performed by submerging the sensors in three concentrations of the chimeric cPD-L1/cPD-L1 antibody (12C10E4) (50, 100, 200 nmol/L) in the kinetic buffer. Dissociation was performed and monitored in fresh kinetic buffer. Data were analyzed with Octet Analysis HT software (Sartorius. Bohemia. NY), […].
In general terms: In BLI a coated tip is dipped into the sample, and binding shifts an interference pattern.

For test [9] the target is unchanged. Put plainly: cell-free blockade assay: canine PD-L1-His on Ni-NTA plate; blocked ligand PD-1-Fc (cPD-1-hFc), HRP anti-human IgG Fc secondary, OD450. As to the method:
For the […] assays. Pierce Ni-NTA coated 96-well plates (ThermoFisher Scientific. Waltham. MA) were coated with canine PD-L1-His proteins and PD-1-Fc proteins (human Fc-protein conjugated) (SinoBiological US. Wayne. PA), and anti-human IgG Fc specific horseradish peroxidase (HRP)-conjugated secondary antibodies (SouthernBiotech. Birmingham. AL) were added, followed by the addition of anti-canine PD-L1, 12C10E4 or cPD-L1 A12C10E4 antibodies. The bound PD-1-Fc protein was quantified by measuring OD450 value with a Synergy LX multi-mode reader.

T1 sequence (Q9EP73 19-238 limits assumed): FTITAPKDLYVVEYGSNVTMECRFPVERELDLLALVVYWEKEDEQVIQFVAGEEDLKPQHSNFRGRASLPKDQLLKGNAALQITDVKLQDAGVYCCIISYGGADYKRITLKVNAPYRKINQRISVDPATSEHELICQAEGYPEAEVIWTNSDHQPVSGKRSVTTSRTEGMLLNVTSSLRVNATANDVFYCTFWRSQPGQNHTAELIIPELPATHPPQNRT
T3 sequence (Q9EP73 19-290 limits assumed): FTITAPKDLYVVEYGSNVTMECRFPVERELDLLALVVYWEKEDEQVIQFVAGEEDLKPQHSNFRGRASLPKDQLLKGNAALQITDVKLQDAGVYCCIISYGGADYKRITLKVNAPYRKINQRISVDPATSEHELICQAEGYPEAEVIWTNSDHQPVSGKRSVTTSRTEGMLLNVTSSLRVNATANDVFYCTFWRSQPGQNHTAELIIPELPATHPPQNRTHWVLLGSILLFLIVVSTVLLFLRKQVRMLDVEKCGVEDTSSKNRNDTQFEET

B1: murine monoclonal antibody cPD-L1 12C10E4 from the hybridoma (antibody, mouse IgG1, V domains shown)
VH: QVQLKQSGPGLVQPSQSLSITCTISGFSLTSFGVHWVRQSPGKGLEWLGVIWSGGSTDYNAAFTSRLSINKDNSKSQVFFKMNSLQADDTAIYYCARGGGPDWYFDVWGTGTTVTVSS
VL: DIVLTQSPASLAVSLGQRATISCRASESVEYYGTSLMQWYQQKPGQPPKLLIFAASNVKSGVPARFSGSGSGTDFSLNIHPVEEDDIAMYFCQQSGKVPHTFGGGTKLEIK
notes: Hybridoma antibody from A/J mice immunized with the cPD-L1 extracellular domain-human Fc; also called mAb 12C; murine 12C antibody
Take B1: the binding result in test [1] is on record as “no binding”.

B2: cPD-L1 3C chimeric antibody clone (3C8D3 variable domains, canine constant domains) (antibody, V domains shown)
VH: EVQLQQSGPELVKPGASVKMSCKASGYTFTDYVLHWVRQTNGKSLEWIGEINPSNGDTYYNQKFKGKATLTVDTSSSTAYMQLTTLTSEDSAVYYCARSDYSNYVGFAYWGQGTLVTVSA
VL: DIVMTQSHKFMSTSVGDRVSITCKVSQDVGTAVAWYQQKPGQCPKRLIYWTSTRHTGVPDRFTGSGSGTDFTLTISNVQSEDLVDYFCQQYSSYPLTFGGGTKLELKR
notes: also called cPD-L1 3C8D3
B2: the binding result in test [2] is listed as “no binding”.

B3: mPD-1-hFc protein (Fc fusion, mouse, UniProt Q02242 25-167, looked up)
chain: LEVPNGPWRSLTFYPAWLTVSEGANATFTCSLSNWSEDLMLNWNRLSPSNQTEKQAAFCNGLSQPVQDARFQIIQLPNRHDFHMNILDTRRNDSGIYLCGAISLHPKAKIEESPGAELVVTERILETSTRYPSPSPKPEGRFQ
notes: also called mouse PD-1; not shown: human Fc
As for B3, the binding result in [3] is reported as “binds”.

B4: cPD-L1 12C10E4 chimeric antibody (mouse variable domains, canine IgG2 / canine kappa constant domains) (antibody)
heavy: QVQLKQSGPGLVQPSQSLSITCTISGFSLTSFGVHWVRQSPGKGLEWLGVIWSGGSTDYNAAFTSRLSINKDNSKSQVFFKMNSLQADDTAIYYCARGGGPDWYFDVWGTGTTVTVSSASTTAPSVFPLAPSCGSTSGSTVALACLVSGYFPEPVTVSWNSGSLTSGVHTFPSVLQSSGLYSLSSMVTVPSSRWPSETFTCNVAHPASKTKVDKPVPKRENGRVPRPPDCPKCPAPEMLGGPSVFIFPPKPKDTLLIARTPEVTCVVVDLDPEDPEVQISWFVDGKQMQTAKTQPREEQFNGTYRVVSVLPIGHQDWLKGKQFTCKVNNKALPSPIERTISKARGQAHQPSVYVLPPSREELSKNTVSLTCLIKDFFPPDIDVEWQSNGQQEPESKYRTTPPQLDEDGSYFLYSKLSVDKSRWQRGDTFICAVMHEALHNHYTQKSLSHSPGK
light: DIVLTQSPASLAVSLGQRATISCRASESVEYYGTSLMQWYQQKPGQPPKLLIFAASNVKSGVPARFSGSGSGTDFSLNIHPVEEDDIAMYFCQQSGKVPHTFGGGTKLEIKRSMEIKRTDAQPAVYLFQPSPDQLHTGSASVVCLLNSFYPKDINVKWKVDGVIQDTGIQESVTEQDKDSTYSLSSTLTMSSTEYLSHELYSCEITHKSLPSTLIKSFQRSECQRVD
notes: Expressed in ExpiCHO-S cells from pTRIOZ-cIgG2-12C10E4; also called 12C chimeric antibody; mAb 12C
As usually defined, the EC50 is the concentration at which the effect is half-maximal. A word on the EC50 (read off the curve): it is the concentration needed to bring the measured effect to its halfway point. The low end stands for greater potency, the high end for weaker potency. One may read the Kd as the concentration at which binding is half-saturated. Higher therefore signals a looser complex. As for B4, the binding result is “no binding” in [2], “binds” in [4] and “no binding” with mPD-L1 on MB49 cells. In test [5], this molecule returned an EC50 of 0.419 µg/mL. In addition, the “IC50 (read off the curve)” value in test [6] was roughly 0.06 µg/mL; in test [9] it was roughly 0.05 µg/mL. Besides, the “EC50 (read off the curve)” value in test [7] was roughly 0.2 µg/mL. In test [8], this molecule returned a Kd of 8.6 nM.

B5: cPD-L1 A12C10E4 chimeric antibody (antibody)
heavy: B4 heavy
light: DIVLTQSPASLAVSLGQRATISCRASESVEYYGTSLMQWYQQKPGQPPKLLIFAASNVKSGVPARFSGSGSGTDFSLNIHPVEEDDIAMYFCQQSGKVPHTFGGGTKLEIKRSMADAQPAVYLFQPSPDQLHTGSASVVCLLNSFYPKDINVKWKVDGVIQDTGIQESVTEQDKDSTYSLSSTLTMSSTEYLSHELYSCEITHKSLPSTLIKSFQRSECQRVD
notes: also called mAb A12C; cPD-L1 A12C10E4 cIgG
Take B5: the “EC50 (read off the curve)” value in test [7] was roughly 0.2 µg/mL. Besides, in test [9], the “IC50 (read off the curve)” value was roughly 0.05 µg/mL.
